Laboratory results published in US20150259666.

Biological target: Human PAI-1 (plasminogen activator inhibitor-1), P05121
Sequence (P05121 whole entry, looked up): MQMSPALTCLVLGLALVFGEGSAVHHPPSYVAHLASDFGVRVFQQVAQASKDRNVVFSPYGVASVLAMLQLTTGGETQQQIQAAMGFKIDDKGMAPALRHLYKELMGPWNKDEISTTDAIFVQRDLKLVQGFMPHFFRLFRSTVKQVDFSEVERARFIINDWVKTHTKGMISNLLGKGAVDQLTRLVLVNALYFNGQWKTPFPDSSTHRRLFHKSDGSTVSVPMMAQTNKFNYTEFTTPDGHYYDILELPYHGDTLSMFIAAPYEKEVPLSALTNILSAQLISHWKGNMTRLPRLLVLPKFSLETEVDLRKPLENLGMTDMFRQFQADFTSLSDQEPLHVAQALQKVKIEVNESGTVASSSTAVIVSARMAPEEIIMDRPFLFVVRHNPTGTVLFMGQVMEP

B1: full length t-PA (native human tissue plasminogen activator) (protein)
chain: SYQVICRDEKTQMIYQQHQSWLRPVLRSNRVEYCWCNSGRAQCHSVPVKSCSEPRCFNGGTCQQALYFSDFVCQCPEGFAGKCCEIDTRATCYEDQGISYRGTWSTAESGAECTNWNSSALAQKPYSGRRPDAIRLGLGNHNYCRNPDRDSKPWCYVFKAGKYSSEFCSTPACSEGNSDCYFGNGSAYRGTHSLTESGASCLPWNSMILIGKVYTAQNPSAQALGLGKHNYCRNPDGDAKPWCHVLKNRRLTWEYCDVPSCSTCGLRQYSQPQFRIKGGLFADIASHPWQAAIFAKHRRSPGERFLCGGILISSCWILSAAHCFQERFPPHHLTVILGRTYRVVPGEEEQKFEVEKYIVHKEFDDDTYDNDIALLQLKSDSSRCAQESSVVRTVCLPPADLQLPDWTECELSGYGKHEALSPFYSERLKEAHVRLYPSSRCTSQHLLNRTVTDNMLCAGDTRSGGPQANLHDACQGDSGGPLVCLNDGRMTLVGIISWGLGCGQKDVPGVYTKVTNYLDWIRDNMRP
**Q.** For B1, which “residual enzyme activity after 1 hour incubation with PAI-1 (PAI-1 resistance)” value is on record?
**A.** Full length t-PA preserve the enzyme activity up to 54%
